In US20230265151A1, “GIP/GLP1 CO-AGONIST COMPOUNDS” (priority 2020, published 2023):
*1 amine or outer side, *2 acyl side, *3 side chain or, on linkers, in order; H or OH if unused. Where no end group is shown, it is not given here. Side-chain parts run from the residue outwards. [ ]: non-standard residue; d: D form. The star is where a group is joined. αMePhe(2-F) = C[C@](N)(Cc1ccccc1F)C(=O)O; γGlu = O=C(O)[C@H](CCC(=O)[*:2])N[*:1]; C14 diacid = O=C(O)CCCCCCCCCCCCC(=O)*; αMeY = C[C@](N)(Cc1ccc(O)cc1)C(=O)O; αMeF = C[C@](N)(Cc1ccccc1)C(=O)O; αMeL = CC(C)C[C@](C)(N)C(=O)O; Orn = NCCC[C@H](N)C(=O)O; AEEA = NCCOCCOCC(=O)O; Aib = CC(C)(N)C(=O)O

T1: human GIP receptor (human, UniProt P48546 22-466)
T1 sequence (looked up): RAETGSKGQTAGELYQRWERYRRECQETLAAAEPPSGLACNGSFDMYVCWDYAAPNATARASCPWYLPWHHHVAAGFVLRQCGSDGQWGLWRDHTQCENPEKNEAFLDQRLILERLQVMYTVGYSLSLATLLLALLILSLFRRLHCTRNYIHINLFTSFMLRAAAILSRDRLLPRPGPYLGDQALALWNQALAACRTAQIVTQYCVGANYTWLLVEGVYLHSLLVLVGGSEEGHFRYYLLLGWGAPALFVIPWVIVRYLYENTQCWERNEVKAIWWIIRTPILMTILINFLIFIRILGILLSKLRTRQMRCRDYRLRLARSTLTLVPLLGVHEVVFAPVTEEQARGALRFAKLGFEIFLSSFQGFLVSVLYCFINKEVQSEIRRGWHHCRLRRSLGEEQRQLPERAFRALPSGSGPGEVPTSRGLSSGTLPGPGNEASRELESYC


Tests used:
Test in all cases: cell-based or functional assay
[1] = molecular target: human glucagon receptor (human, UniProt P47871 26-477)
[2] = molecular target: T1, human GIP receptor
[3] = molecular target: human GLP-1 receptor (human, UniProt P43220 24-463)

Binder	EC50, cAMP [1]	EC50, cAMP [2]	Emax, cAMP [2]	EC50, cAMP [3]	Emax, cAMP [3]
Y[Aib]EGT[αMePhe(2-F)]TSDV[Aib]I[αMeL]LD[Orn]K([AEEA-AEEA-γGlu-C14 diacid])AQ[Aib]E[αMeF]I[dE][αMeY]LIEGGK([AEEA-AEEA-γGlu-C14 diacid])SSGAPPPS-NH2 [Example 93]	> 9950 nM	0.0448 nM	99.4%	0.575 nM	–
Y[Aib]EGT[αMePhe(2-F)]TSDK([AEEA-AEEA-γGlu-C14 diacid])SI[αMeL]LD[Orn]IAQ[Aib]E[αMeF]IK([AEEA-AEEA-γGlu-C14 diacid])[αMeY]LIEGGPSSGAPPPS-NH2 [Example 110]	> 9950 nM	0.0417 nM	–	1.43 nM	98.8%
Y[Aib]EGT[αMePhe(2-F)]TSDK([AEEA-AEEA-γGlu-C14 diacid])SI[αMeL]LD[Orn]IAQ[Aib]EFIK([AEEA-AEEA-γGlu-C14 diacid])[αMeY]LIEGGPSSGAPPPS-NH2 [Example 106]	> 9950 nM	0.0385 nM	98.7%	0.296 nM	–
Y[Aib]EGT[αMePhe(2-F)]TSDK([AEEA-AEEA-γGlu-C14 diacid])SI[αMeL]LD[Orn]IAQ[Aib]E[αMeF]I[dE][αMeY]LIK([AEEA-AEEA-γGlu-C14 diacid])GGPSSGAPPPS-NH2 (N-terminus assumed; SMILES CC[C@H](C)[C@H](NC(=O)[C@H](CCCN)NC(=O)[C@H](CC(=O)O)NC(=O)[C@H](CC(C)C)NC(=O)[C@](C)(CC(C)C)NC(=O)[C@@H](NC(=O)[C@H](CO)NC(=O)[C@H](CCCCNC(=O)COCCOCCNC(=O)COCCOCCNC(=O)CC[C@H](NC(=O)CCCCCCCCCCCCC(=O)O)C(=O)O)NC(=O)[C@H](CC(=O)O)NC(=O)[C@H](CO)NC(=O)[C@@H](NC(=O)[C@](C)(Cc1ccccc1F)NC(=O)[C@@H](NC(=O)CNC(=O)[C@H](CCC(=O)O)NC(=O)C(C)(C)NC(=O)[C@@H](N)Cc1ccc(O)cc1)[C@@H](C)O)[C@@H](C)O)[C@@H](C)CC)C(=O)N[C@@H](C)C(=O)N[C@@H](CCC(N)=O)C(=O)NC(C)(C)C(=O)N[C@@H](CCC(=O)O)C(=O)N[C@@](C)(Cc1ccccc1)C(=O)N[C@H](C(=O)N[C@H](CCC(=O)O)C(=O)N[C@@](C)(Cc1ccc(O)cc1)C(=O)N[C@@H](CC(C)C)C(=O)N[C@H](C(=O)N[C@@H](CCCCNC(=O)COCCOCCNC(=O)COCCOCCNC(=O)CC[C@H](NC(=O)CCCCCCCCCCCCC(=O)O)C(=O)O)C(=O)NCC(=O)NCC(=O)N1CCC[C@H]1C(=O)N[C@@H](CO)C(=O)N[C@@H](CO)C(=O)NCC(=O)N[C@@H](C)C(=O)N1CCC[C@H]1C(=O)N1CCC[C@H]1C(=O)N1CCC[C@H]1C(=O)N[C@@H](CO)C(N)=O)[C@@H](C)CC)[C@@H](C)CC) [Example 111]	> 9950 nM	0.0202 nM	76.1%	2.28 nM	121%
YXEGTXTSDXSIXLDXKAQXEFIXXLIEGGKSSGAPPPS (Aib2, αMeF(2F)6, 4Pal10, αMeL13, Orn16, Aib20, D-Glu24, αMeY25, K17 and K31: K(AEEA2-CO-(CH2)12-CO2H), C-terminal NH2) [Example 9]	> 9950 nM	0.0102 nM	–	0.421 nM	–
YXEGTXTSDXSIXLDXKAQXGFIXXLIEGGKSSGAPPPS (Aib2, αMeF(2F)6, 4Pal10, αMeL13, Orn16, Aib20, D-Glu24, αMeY25, K17 and K31: K(AEEA2-(γ-Glu)-CO-(CH2)12-CO2H), C-terminal NH2) [Example 103]	> 9950 nM	0.0305 nM	92.8%	2.1 nM	–
YXEGTXTSDXSIXLDXKAQXEFIXXLIEGGKSSGAPPPS (Aib2, αMeF(2F)6, Ac4c10, αMeL13, Orn16, Aib20, D-Glu24, αMeY25, K17 and K31: K(AEEA2-(γ-Glu)-CO-(CH2)12-CO2H), C-terminal NH2) [Example 95]	> 9950 nM	0.0748 nM	–	0.181 nM	–
YXEGTXTSDXSIXLDXKAQXEFIGXLIEGGKSSGAPPPS (Aib2, αMeF(2F)6, 4Pal10, αMeL13, Orn16, Aib20, αMeY25, K17 and K31: K(AEEA2-(γ-Glu)-CO-(CH2)12-CO2H), C-terminal NH2) [Example 104]	> 9950 nM	0.0361 nM	94.9%	0.417 nM	–
YXEGTXTSDXSIXLDXKAQXEFIXXLIEGGKSSGAPPPS (Aib2, αMeF(2F)6, 4CPhe10, αMeL13, Orn16, Aib20, D-Glu24, αMeY25, K17 and K31: K(AEEA2-(γ-Glu)-CO-(CH2)12-CO2H), C-terminal NH2) [Example 96]	> 9950 nM	0.0484 nM	–	6.81 nM	–
YXEGTXTSDXSIXLDXKAQXEXIXXLIEGGKSSGAPPPS (Aib2, αMeF(2F)6, Ac5c10, αMeL13, Orn16, Aib20, αMeF22, D-Glu24, αMeY25, K17 and K31: K(AEEA2-(γ-Glu)-CO-(CH2)12-CO2H), C-terminal NH2) [Example 94]	> 9950 nM	0.0132 nM	–	2.1 nM	97.4%
YXEGTXTSDKSIXLDXIAQXKFIXXLIEGGPSSGAPPPS (Aib2, αMeF(2F)6, αMeL13, Orn16, Aib20, D-Glu24, αMeY25, K10 and K21: K(AEEA2-(γ-Glu)-CO-(CH2)12-CO2H), C-terminal NH2) [Example 105]	> 9950 nM	0.0366 nM	–	0.52 nM	–
YXEGTXTSDXSIXLDXKAQXEFIXXLIEGGKSSGAPPPS (Aib2, αMeF(2F)6, ChA10, αMeL13, Orn16, Aib20, D-Glu24, αMeY25, K17 and K31: K(AEEA2-(γ-Glu)-CO-(CH2)12-CO2H), C-terminal NH2) [Example 98]	> 9950 nM	0.0148 nM	–	0.227 nM	–
YXEGTXTSDXSIXLDXKAQXEFIXXLIEGGKSSGAPPPS (Aib2, αMeF(2F)6, ChG10, αMeL13, Orn16, Aib20, D-Glu24, αMeY25, K17 and K31: K(AEEA2-(γ-Glu)-CO-(CH2)12-CO2H), C-terminal NH2) [Example 97]	> 9950 nM	0.0276 nM	–	0.683 nM	–
YXEGTXTSDXSIXLDXKAQXEXIXXLIEGGKSSGAPPPS (Aib2, αMeF(2F)6, 4Pal10, αMeL13, Orn16, Aib20, 2Nal22, D-Glu24, αMeY25, K17 and K31: K(AEEA2-(γ-Glu)-CO-(CH2)12-CO2H), C-terminal NH2) [Example 99]	> 9950 nM	0.0235 nM	–	0.349 nM	–
YXEGTXTSDXSIXLDGKAQXEFIXXLIEGGKSSGAPPPS (Aib2, αMeF(2F)6, 4Pal10, αMeL13, Aib20, D-Glu24, αMeY25, K17 and K31: K(AEEA2-(γ-Glu)-CO-(CH2)12-CO2H), C-terminal NH2) [Example 101]	> 9950 nM	0.0297 nM	92.1%	2.94 nM	–
YXEGTXTSDKSIXLDXIAQXKXIXXLIEGGPSSGAPPPS (Aib2, αMeF(2F)6, αMeL13, Orn16, Aib20, αMeF22, D-Glu24, αMeY25, K10 and K21: K(AEEA2-(γ-Glu)-CO-(CH2)12-CO2H), C-terminal NH2) [Example 109]	> 9950 nM	0.0236 nM	84.8%	0.846 nM	–
Y[Aib]EGT[αMePhe(2-F)]TSDK([AEEA-AEEA-γGlu-C14 diacid])SI[αMeL]LD[Orn]IAQ[Aib]EFI[dE][αMeY]LIEGGK([AEEA-AEEA-γGlu-C14 diacid])SSGAPPPS-NH2 (N-terminus assumed; SMILES CC[C@H](C)[C@H](NC(=O)[C@H](CCCN)NC(=O)[C@H](CC(=O)O)NC(=O)[C@H](CC(C)C)NC(=O)[C@](C)(CC(C)C)NC(=O)[C@@H](NC(=O)[C@H](CO)NC(=O)[C@H](CCCCNC(=O)COCCOCCNC(=O)COCCOCCNC(=O)CC[C@H](NC(=O)CCCCCCCCCCCCC(=O)O)C(=O)O)NC(=O)[C@H](CC(=O)O)NC(=O)[C@H](CO)NC(=O)[C@@H](NC(=O)[C@](C)(Cc1ccccc1F)NC(=O)[C@@H](NC(=O)CNC(=O)[C@H](CCC(=O)O)NC(=O)C(C)(C)NC(=O)[C@@H](N)Cc1ccc(O)cc1)[C@@H](C)O)[C@@H](C)O)[C@@H](C)CC)C(=O)N[C@@H](C)C(=O)N[C@@H](CCC(N)=O)C(=O)NC(C)(C)C(=O)N[C@@H](CCC(=O)O)C(=O)N[C@@H](Cc1ccccc1)C(=O)N[C@H](C(=O)N[C@H](CCC(=O)O)C(=O)N[C@@](C)(Cc1ccc(O)cc1)C(=O)N[C@@H](CC(C)C)C(=O)N[C@H](C(=O)N[C@@H](CCC(=O)O)C(=O)NCC(=O)NCC(=O)N[C@@H](CCCCNC(=O)COCCOCCNC(=O)COCCOCCNC(=O)CC[C@H](NC(=O)CCCCCCCCCCCCC(=O)O)C(=O)O)C(=O)N[C@@H](CO)C(=O)N[C@@H](CO)C(=O)NCC(=O)N[C@@H](C)C(=O)N1CCC[C@H]1C(=O)N1CCC[C@H]1C(=O)N1CCC[C@H]1C(=O)N[C@@H](CO)C(N)=O)[C@@H](C)CC)[C@@H](C)CC) [Example 108]	> 9950 nM	0.0249 nM	85.2%	0.701 nM	97.6%
Y[Aib]EGT[αMePhe(2-F)]TSDK([AEEA-AEEA-γGlu-C14 diacid])SI[αMeL]LD[Orn]IAQ[Aib]EFI[dE][αMeY]LIK([AEEA-AEEA-γGlu-C14 diacid])GGPSSGAPPPS-NH2 (N-terminus assumed; SMILES CC[C@H](C)[C@H](NC(=O)[C@H](CCCN)NC(=O)[C@H](CC(=O)O)NC(=O)[C@H](CC(C)C)NC(=O)[C@](C)(CC(C)C)NC(=O)[C@@H](NC(=O)[C@H](CO)NC(=O)[C@H](CCCCNC(=O)COCCOCCNC(=O)COCCOCCNC(=O)CC[C@H](NC(=O)CCCCCCCCCCCCC(=O)O)C(=O)O)NC(=O)[C@H](CC(=O)O)NC(=O)[C@H](CO)NC(=O)[C@@H](NC(=O)[C@](C)(Cc1ccccc1F)NC(=O)[C@@H](NC(=O)CNC(=O)[C@H](CCC(=O)O)NC(=O)C(C)(C)NC(=O)[C@@H](N)Cc1ccc(O)cc1)[C@@H](C)O)[C@@H](C)O)[C@@H](C)CC)C(=O)N[C@@H](C)C(=O)N[C@@H](CCC(N)=O)C(=O)NC(C)(C)C(=O)N[C@@H](CCC(=O)O)C(=O)N[C@@H](Cc1ccccc1)C(=O)N[C@H](C(=O)N[C@H](CCC(=O)O)C(=O)N[C@@](C)(Cc1ccc(O)cc1)C(=O)N[C@@H](CC(C)C)C(=O)N[C@H](C(=O)N[C@@H](CCCCNC(=O)COCCOCCNC(=O)COCCOCCNC(=O)CC[C@H](NC(=O)CCCCCCCCCCCCC(=O)O)C(=O)O)C(=O)NCC(=O)NCC(=O)N1CCC[C@H]1C(=O)N[C@@H](CO)C(=O)N[C@@H](CO)C(=O)NCC(=O)N[C@@H](C)C(=O)N1CCC[C@H]1C(=O)N1CCC[C@H]1C(=O)N1CCC[C@H]1C(=O)N[C@@H](CO)C(N)=O)[C@@H](C)CC)[C@@H](C)CC) [Example 107]	> 9950 nM	0.0473 nM	94.3%	1.01 nM	93.4%
